Experimental data from patent US9481870B2, “Nucleic acid encoding a polypeptide having aminotransferase activity, vectors and host cells comprising the nucleic acid” (KANEKA CORPORATION, priority 2010, dated 2016).

Key:
[1] = Thermal stability (residual activity after 30 minutes heating); assay type: physicochemical; conditions: for Residual activity: pH7.5, before heat treatment = 100
Protocol: The thermal stability of the polypeptide is determined as follows.
The purified TPM was reacted for 30 minutes in 0.1 M potassium phosphate buffer (pH7.5) containing 0.5 mM pyridoxal phosphate at 30° C., 40° C., 50° C., 60° C., 70° C., and 80° C., and then activity assay was performed in a similar manner. As a result, 90% or more of the activity before heat treatment remained after treatment at 30° C. to 60° C.

[2] = Activity of purified TPM for 1-benzyl-3-pyrrolidinone and optical purity of product; assay type: biochemical; conditions: 2 hours
Protocol: The above properties can be determined by the following method. Specifically, a purified polypeptide is added to a substrate solution having the following composition so that it has a final concentration ranging from 0.1 mg/mL to 1 mg/mL for reaction at 30° C. Furthermore, the reaction is continued until 0.6 mM or more 1-benzyl-3-aminopyrrolidine (as determined by the following quantitative analysis) is generated. After the completion of the reaction, the optical purity of the 1-benzyl-3-aminopyrrolidine generated in the reaction solution is analyzed by HPLC under the following conditions. […]
[High Performance Liquid Chromatography (HPLC) Analysis Conditions] • <Quantitative A> • Column: Finepak SIL C18-T (JASCO Corporation) • Eluent: distilled water 1260 mL/acetonitrile 740 mL/KH2 PO4 10 g/SDS 2.88 g (pH3.6) • Flow rate: 1 mL/minute • Detection: 254 nm • Column temperature: 40° C. […]
A reaction solution was treated with an appropriate amount of sodium carbonate so that it became basic, derivatized with dinitrobenzoyl chloride, and then analyzed under the following conditions. • Column: Chiral pak IA (Daicel Corporation) • Eluent: hexane/ethanol/diethylamine/acetonitrile=800/200/1/5 (volume ratio) • Flow rate: 0.8 mL/minute • Detection: 254 nm

[3] = Optimum temperature of transamination activity; assay type: biochemical
Protocol: (§1) The transamination activity of purified TPM was examined under the following activity assay conditions. Specifically, purified TPM was added to a substrate solution with the composition given below to a total amount of 1 mL. After 5 minutes of reaction at 30° C., 0.05 mL of 6N hydrochloric acid was added to stop the reaction. HPLC analysis was conducted under the following conditions.
Transamination activity was determined at 10° C., 20° C., 30° C., 40° C., 50° C., 60° C., and 70° C. under the same conditions above.

[4] = Optimum pH of transamination activity; assay type: biochemical
Protocol: The optimum pH for transamination is determined by the above activity assay A using combinations of the following buffers and pHs. […] When activity levels are different depending on buffer types, the activity level higher than the other is employed even if the pHs are the same. • pH4.0, 4.5, 5.0, 5.5: 0.1 M sodium acetate buffer • pH6.0, 6.5, 7.0, 7.5, 8.0: 0.1 M potassium phosphate buffer • pH7.5, 8.0, 8.5, 9.0: 0.1M Tris-hydrochloric acid buffer (Optimum Temperature)
as §1
Transamination activity was determined in a manner similar to the above at pHs ranging from 4.0 to 9.0 and then the optimum pH of TPM was examined.
The following buffers were used according to pH for determination.
[Buffer] • pH4.0, 4.5, 5.0, or 5.5: 0.1 M sodium acetate buffer • pH6.0, 6.5, 7.0, 7.5, or 8.0: 0.1 M potassium phosphate buffer • pH7.5, 8.0, 8.5, or 9.0: 0.1 M tris-hydrochloric acid buffer • (3) Optimum Temperature: […]

[5] = Resistance to water-soluble organic solvent (residual activity); assay type: physicochemical; conditions: 2 hours, 30° C.
Protocol: Resistance to a water-soluble organic solvent can be determined by the following method. Specifically, first, 800 uL of each water-soluble organic solvent is added to 200 uL of a 0.1 M aqueous potassium phosphate solution (pH7.5) supplemented with 0.5 mM PLP containing a purified polypeptide, so that the solvent is brought into contact with the solution at 30° C. for 2 hours. Subsequently, the resultant is diluted with a 0.1 M aqueous potassium phosphate solution supplemented with 0.5 mM PLP. Activity in the dilute solution is compared with the same in a purified polypeptide solution before addition of the solvent using the above activity assay A.
• (5) Resistance to water-soluble organic solvent: 800 μL of 1-propanol, 2-propanol, or acetone was added to 200 μL of 0.1 M potassium phosphate buffer (pH7.5) containing 0.5 mM pyridoxal phosphate to which purified TPM had been added, followed by 2 hours of treatment at 30° C. After treatment, 0.1 M potassium phosphate buffer (pH7.5) containing 0.5 mM pyridoxal phosphate was diluted 20-fold, and then the activity of the diluted solution was determined under conditions similar to those above.
The resistance of commercially available Vibrio fluvialis-derived ω-Transaminase VF (Julich-Chemicals) to a water-soluble organic solvent was examined by a method similar to that for resistance to a water-soluble organic solvent in Example 9 (5).

B1: TPM: purified aminotransferase polypeptide from Pseudomonas sp. MV37, about 50,000 molecular weight, amino acid sequence SEQ ID NO: 1 (protein, listed as Pseudomonas sp.)
chain: MNHLEKMLELDRNHLIHPHLPKSEFSRTIFARGKGCKLWDTEGREYLDATGGLWLAQIGHGREEIAEVAARQMKQLEYFTCFWDFSNERAIELAEKLARLAPGDLEMSFFTSGGSEGDDAAIKTARYYHSQRGEPKRTWILSRNNAYHGLAYGGGTATGFPELRDGMGPGLPHVAYLTQPNAYRHYYFDGQNPTDFCVSELEKMIASIGAENIAAMIAEPIMGVGGMVPPPVDYWPRMSQVLKKNGILLIFDEVVSAFGRSGHWFAAEKYGVIPDIMVTAKGISSGYIPLGAVIMSRDVADTVREGHGYPLGYTYSGHPVACAVALENLRILEDEDLINRSNHMGTYIAEQLTALRDNPCVGEVRQAGMGIGIELVTDKESRQPLPDAALVIPDIIREETGVIVRISNATNLCMSPPLTMSREEADRAVEAVCSVLSRVKPDGKV
activity remaining relative to before heat treatment ([1]; after treatment at 30° C. to 60° C.): ≥ 90% | Residual activity ([1]; treatment 30° C.): 108 | Residual activity ([1]; treatment 40° C.): 115 | Residual activity ([1]; treatment 50° C.): 120 | Residual activity ([1]; treatment 60° C.): 100 | Residual activity ([1]; treatment 70° C.): 12 | conversion rate ([2]; (S)-1-phenethylamine 85.6 mM, 1-benzyl-3-pyrrolidinone 57.1 mM, pH 7.0, 30° C.): 90% | optical purity ([2]; generated (S)-1-benzyl-3-aminopyrrolidine, 30° C.): 98.0 % e.e. | optimum temperature ([3]; 10° C. to 70° C. tested): 60 °C | Relative activity ([3]; Reaction temperature 10° C., activity at 60° C. = 100): 8 | Relative activity ([3]; Reaction temperature 20° C., activity at 60° C. = 100): 16 | Relative activity ([3]; Reaction temperature 30° C., activity at 60° C. = 100): 33 | Relative activity ([3]; Reaction temperature 40° C., activity at 60° C. = 100): 49 | Relative activity ([3]; Reaction temperature 50° C., activity at 60° C. = 100): 77 | Relative activity ([3]; Reaction temperature 60° C., designated as 100): 100 | Relative activity ([3]; Reaction temperature 70° C., activity at 60° C. = 100): 68 | Relative activity ([4]; 0.1M Potassium phosphate, pH 6.0, activity at pH7 = 100): 86 | Relative activity ([4]; 0.1M Potassium phosphate, pH 6.5, activity at pH7 = 100): 94 | Relative activity ([4]; 0.1M Potassium phosphate, pH 7.0, designated as 100): 100 | Relative activity ([4]; 0.1M Potassium phosphate, pH 7.5, activity at pH7 = 100): 88 | Relative activity ([4]; 0.1M Potassium phosphate, pH 8.0, activity at pH7 = 100): 67 | Relative activity ([4]; 0.1M Sodium acetate, pH 4.0, activity at pH7 = 100): 7 | Relative activity ([4]; 0.1M Sodium acetate, pH 4.5, activity at pH7 = 100): 25 | Relative activity ([4]; 0.1M Sodium acetate, pH 5.0, activity at pH7 = 100): 57 | Relative activity ([4]; 0.1M Sodium acetate, pH 5.5, activity at pH7 = 100): 71 | Relative activity ([4]; 0.1M Tris-hydrochloric acid, pH 7.5, activity at pH7 = 100): 96 | Relative activity ([4]; 0.1M Tris-hydrochloric acid, pH 8.0, activity at pH7 = 100): 95 | Relative activity ([4]; 0.1M Tris-hydrochloric acid, pH 8.5, activity at pH7 = 100): 85 | Relative activity ([4]; 0.1M Tris-hydrochloric acid, pH 9.0, activity at pH7 = 100): 67 | Residual activity rate (%) ([5]; 1-Propanol 80% v/v): 97% | Residual activity rate (%) ([5]; 2-Propanol 80% v/v): 100% | stability against 1-propanol, 2-propanol, and acetone ([5]; 80% v/v solvent): extremely stable | Residual activity rate (%) ([5]; Acetone 80% v/v): 99%
